Biological target: SARS-CoV-2 RBD (RWT), wild-type Wuhan Hu-1 receptor-binding domain, residues 319-533 (SARS-CoV-2 Wuhan Hu-1)
Experiment: BLI

B1: COVA2-15 (class 2 RBD-directed antibody) (antibody, V domains shown)
VH: QVQLLESGGGLVQPGGSLRLSCAASGFTFSSYAMSWVRQAPGKGLEWASAISGSGGSTYYADSVEGRFTISRDNSKNTLYLQMNSLRAEDTAVYYCAKDTGYCGDDCYIKLIRGGPDYWGQGTLVTVSS
VL: DIVMTQSPLSLPVTLGQPASISCRSSQSLVYSDGNTFLNWFQQRPGQSPRRLIYQVSNRDSGVPDRFSGSGSGTDFTLKISRVEAEDVGVYYCMQGTHWPRTFGQGTKLEIK
koff: 0.0025 s⁻¹
